Experimental findings from the RNAGym collection of RNA variant scans (doi:10.7554/elife.80360) are described below.

B1: HDV Ribozyme (parent)
chain: GGCCGGCAUGGUCCCAGCCUCCUCGCUGGCGCCGGCUGGGCAACAUUCCGAGGGGACCGUCCCCUCGGUAAUGGCGAAUGGGACCCA

In the series the parent is B1. As to the kind of experiment: self-cleavage, relative activity (ratio to wild type); higher = more cleavage; co-transcriptional.
For the variant GGCCGGCAUGGUCCCAGCCUACUCGCUGGCGCCGGCUGGGCAACAUUCCGAGUGGACCGUCCCCUCGGUAAUGGCGAAUGGGACCCA, the self-cleavage turned out to be 0.135.

As to GGCCGGCAUGGUCCCAGCCUCCUCGCUGGCGCCGGCUGGGCAACAUUCCGAGGGGACCGUCCCCUCGGUAAGGGCGAAUCGGACCCA, the self-cleavage is 0.26.

Regarding GGCCGGCAUGGUCCCAGCCUCCUCGCUGGCGCCGGCUGGGCCACAUUCCGAGGGGACCGUCCCCUCGGUAAAGGCGAAUGGGACCCA, the self-cleavage was 0.266.

Regarding CGCCGGCAUGGUCCCAGCCUCCUCGCUGGCGCCCGCUGGGCAACAUUCCGAGGGGACCGUCCCCUCGGUAAUGGCGAAUGGGACCCA, the self-cleavage was 0.0594.

On to GGCCGGCAUGGUCCCAGCCUCCUCGCGGGCGCCGGCUGGGCAACAUUCCGAGGGGACCGUCCCCUCGGUAAUGGAGAAUGGGACCCA, for which the self-cleavage worked out at 0.0755.

In the case of GGCCGGCAUGGUCCCAGCCUCCUCGAUGGCGCCGGCUGGGCAACAUUCCGAGGGGACCGUUCCCUCGGUAAUGGCGAAUGGGACCCA, the self-cleavage is 0.974.

As to GGCCGGCAUGGUCCCAGCCUCCUCGCAGGCGCCGGCUGGGCAACAUUCCGAGGGGACCGUCACCUCGGUAAUGGCGAAUGGGACCCA, the self-cleavage turned out to be 0.872.

With GGCCGGCAUGGUCCCAGCCUCCUCGCUGGCGCCGGCUGGGCGACAUUCCGAGGGGACCGUCCCCUCGGUAAUGGUGAAUGGGACCCA, the self-cleavage turned out to be 0.397.

Take GGCCGGCAUGGUCCCACCCUCCUCGCUGGCGCCGGCUGGGCAACAUUCCGAGGGGACCGUCCCCUCGGUAAUGGCGAAUGGGAUCCA: the self-cleavage is 0.326.

As for GGCCGGUAUGGUCCCAGCCUCCUCGCUGGCGCCGGCUGGGCAACAUUCCGAGGGGACCGUCCCCUCGGUAAUGGCGAAAGGGACCCA, the self-cleavage was found to be 0.675.

On to UCCCGGCAUGGUCCCAGCCUCCUCGCUGGCGCCGGCUGGGCAACAUUCCGAGGGGACCGUCCCCUCGGUAAUGGCGAAUGGGACCCA, for which the self-cleavage stood at 0.519.

For the variant GGCCGGCAUGGUGCCAGCCUCCUCGCUGGCGCCGGCUGGGCAACAUUCCGAGGGGACCGUCCCCUCGGUAAUGCCGAAUGGGACCCA, the self-cleavage worked out at 0.128.

For the variant GGCCGGCAUGGUCCCAGCCUCCUCGCGGACGCCGGCUGGGCAACAUUCCGAGGGGACCGUCCCCUCGGUAAUGGCGAAUGGGACCCA, the self-cleavage was found to be 0.283.

For GGCCGGCAUGGUCCCAGCCUCCUCACUGGCGCCGGCUGGGCUACAUUCCGAGGGGACCGUCCCCUCGGUAAUGGCGAAUGGGACCCA, the self-cleavage stood at 0.

For the variant GGCCAGCAUGGUCCCAGCCUCCUCGCUGGCGCCGGCUGGGCAACAUUCCGAGGAGACCGUCCCCUCGGUAAUGGCGAAUGGGACCCA, the self-cleavage stood at 0.177.

As to GGCCGGCAUGGUCCCAGCCUCCUCGCAGGCGCCGGCUGGGCAACAUUCCGAGGGAACCGUCCCCUCGGUAAUGGCGAAUGGGACCCA, the self-cleavage was found to be 1.08.

For the variant GGCCGGCAUGGUCCCAGGCUCCUCGCUGGCGCCGGCUGGGCAACAUUCCGAGGGGCCCGUCCCCUCGGUAAUGGCGAAUGGGACCCA, the self-cleavage was determined as 0.0755.

Take GGCCGGCAUGGUCCCAGCCUCCUCGCUGGCGCCGGCUGGGCAACAUUCCGAGGGGACCGUCCCCUCGGUAAUGGCUAAUGGGUCCCA: the self-cleavage turned out to be 0.481.

For the variant GGCCGGCAUGGUCCCAGCCUCCUCGCUGGCGCCGGCUGGGCAACAUUCCGAGGGGACCGUCCGCUCGGUAAUGGCGAAUGGGACACA, the self-cleavage came out at 0.95.

Take GGCCGGCAUGGUCGCAGCCUCCUUGCUGGCGCCGGCUGGGCAACAUUCCGAGGGGACCGUCCCCUCGGUAAUGGCGAAUGGGACCCA: the self-cleavage came out at 0.403.

With GGCCGGCAUGGUCCCAACCUCCUCGCUGGCGCCGGCUGGGCAACAUUCCGAGGGGACCGUCCCCUCGGUAAGGGCGAAUGGGACCCA, the self-cleavage worked out at 0.378.

Regarding CGCCGGCAUGGUCCCAGCCUCCUCGCUGGCGCCGGCUGGGCAACAUUCCGAGGGGACCGUCCCCUCGGUAAUCGCGAAUGGGACCCA, the self-cleavage came to 0.142.

For GGCAGGCAUGGUCCCAGUCUCCUCGCUGGCGCCGGCUGGGCAACAUUCCGAGGGGACCGUCCCCUCGGUAAUGGCGAAUGGGACCCA, the self-cleavage amounted to 0.119.

Consider GGGCGGCAUGGUCCCAGCCACCUCGCUGGCGCCGGCUGGGCAACAUUCCGAGGGGACCGUCCCCUCGGUAAUGGCGAAUGGGACCCA, for which the self-cleavage was determined as 0.0755.

As to GGCCGGCAUGGUCCCAGCCUCCUCGCUGGCGCCGGCUGGGCAACAUUCCGAGGGGACCGUCCCCUCGGUAAUGGCUAAUGGGACCUA, the self-cleavage stood at 0.852.

Take GGCCGGCAUGGUCCCAGCCUCCUCGCUGGCGCCGGCUGGGCAACGUUCCGAGGGGACCGUCCCCUCGGUAAUGGCGAAUCGGACCCA: the self-cleavage stood at 0.415.

As to CGCCGGCAUGGUCCCAGCCUCCUCGCUGGCGCCGGCUGAGCAACAUUCCGAGGGGACCGUCCCCUCGGUAAUGGCGAAUGGGACCCA, the self-cleavage was found to be 0.203.

As to GGCCGGCAUGGUCCCAGCCUCCUCGCUGGCGCCGGCUGGGCAACAUUCCGAGGGGACCGUCUCCUCGGUAAUGGCGAAUGGGCCCCA, the self-cleavage was found to be 0.359.

Take GGCCGGCAUGGUCCCAGCCUCCUCGCUGGCGCCGGCUGGGCAACAUUCCGAGGGGAACGUCCCCUCUGUAAUGGCGAAUGGGACCCA: the self-cleavage came out at 1.06.

With GGCCGGCAUGGUCCCAGCCUCCUCGCUGGCGCCGGCUGGGCAACAUUCAGAGGGGACCGUCCCCUCGCUAAUGGCGAAUGGGACCCA, the self-cleavage is 0.849.

Consider GGCCGGCAUGGUCCCAGCCUCCUCGCUGGCGCCGGCUGGACAACAUUCCGAGGGGACCGUGCCCUCGGUAAUGGCGAAUGGGACCCA, for which the self-cleavage stood at 1.17.

With GGCCGGCAUGGUCCCAGCCUCCUCGCUGGCGCCGGUUGGGCAACAUUCCGAGGGGACCGUCCCCUCGGUAAUAGCGAAUGGGACCCA, the self-cleavage is 0.428.

Consider GCCCGGCAUGGUCCCAGCCUCCUCGCUGGCGCCGGCUGGGCAACAUUCCGCGGGGACCGUCCCCUCGGUAAUGGCGAAUGGGACCCA, for which the self-cleavage stood at 0.0308.

Regarding GGCCGGCAUGGUCCCAGCCUCCUCGCUGGCGCCGGCUGCGCAACAUUCCGAGCGGACCGUCCCCUCGGUAAUGGCGAAUGGGACCCA, the self-cleavage came to 0.

With GGCCGGCAUGGUCCCAGCCUCCUCGCUGGCGCCGGCUGGGCAACAUUCCGAGGGGACCGACCCCUCGGUAAUGGCGAAUCGGACCCA, the self-cleavage was 0.0354.

For the variant GGCCGGCAGGGUGCCAGCCUCCUCGCUGGCGCCGGCUGGGCAACAUUCCGAGGGGACCGUCCCCUCGGUAAUGGCGAAUGGGACCCA, the self-cleavage was 0.111.

In the case of GGCCGGCAUGGUCCCAGCUUCCUCGCUGGCUCCGGCUGGGCAACAUUCCGAGGGGACCGUCCCCUCGGUAAUGGCGAAUGGGACCCA, the self-cleavage is 0.115.

Turning to GGCCGGCAUGGUCCCAGCCUCCUCGCUGGCGCCGGCUGGGCAACAUUCCGAGGGGACCGUCCGUUCGGUAAUGGCGAAUGGGACCCA, the self-cleavage stood at 0.753.

In the case of GGCCGGCAUGGUCCCAGCCUCCUCGCUGGCGCCGGCUGGGCAACAUUCCGAGGGGACCGUUCCCUCGGUAAUGGCGAAUGGGAACCA, the self-cleavage came out at 0.992.

Consider GGCCGGCAUGGUCCCAGCCUCCUCGCUGGCGCCGGCUGGGCAAAAUUCCGAGCGGACCGUCCCCUCGGUAAUGGCGAAUGGGACCCA, for which the self-cleavage is 0.686.

As to GGCCGGCAGGGUCUCAGCCUCCUCGCUGGCGCCGGCUGGGCAACAUUCCGAGGGGACCGUCCCCUCGGUAAUGGCGAAUGGGACCCA, the self-cleavage stood at 1.08.

With GGCCGGCAUGGUCCCAGUCUCCUCGCUGGCGCCGGCUGGGCAACAUUCCGAGGGGACCGUCCCCUCGGUAAUGUCGAAUGGGACCCA, the self-cleavage turned out to be 0.166.

GGCCGGCAUGGUCCCAGCCUCCUCGCUGGUGCCGGCUGGGCAACAUUCCGAGGGGACCGUCCCCUCGGUAAUGGCGAAUGGGACCGA: the self-cleavage was found to be 0.733.

As for GGCCGGCAUGGUCCCAGCCUCCUCACUGGCGCCGGCUGGGCAACAUUCCUAGGGGACCGUCCCCUCGGUAAUGGCGAAUGGGACCCA, the self-cleavage came out at 0.242.

GGCCGGCAUGGUCCCAGCCUCCUCGCUGGCGCCGUCUGGGCAACAUUCCGAGGGGACCUUCCCCUCGGUAAUGGCGAAUGGGACCCA: the self-cleavage was 0.53.

Regarding GGCCGGCAUGGUCACAGCCUCCUCGCUGGCGCCGGCUGGGCAACAUUCCGAGGGGACCGUCCCCUCGGUAAUGGUGAAUGGGACCCA, the self-cleavage is 0.

Turning to GGCCGGCAUGGUCCCAGCCUCCUCGCUGGCGCCGGCUGGGCAACAUUCCGAAGGGAUCGUCCCCUCGGUAAUGGCGAAUGGGACCCA, the self-cleavage came to 1.06.

In the case of GGCCGGCAUGGUCCCAGCCUCCUCGCUGGCGCCGGCUGGGCAACAUUCCGAGCGGACCGUCCCCUCGGUAAUGGCGAAUAGGACCCA, the self-cleavage was found to be 0.307.

On to GGCCGGCAUGGUCCCAGCCUCCUCGCUGGCGCCCGCUGGGCAACAUUCCGAGGGGACCGUCCCCUCGGUAAUGGCGAAAGGGACCCA, for which the self-cleavage amounted to 0.104.

In the case of GGCCGGCAUGGUCCCAGCCUCCUCGCUGGCGCCGGCUGGGCAACAUGCCGAGGGGACCGUCUCCUCGGUAAUGGCGAAUGGGACCCA, the self-cleavage was found to be 0.923.

As for GGCCGGCAUGGUCCCAGCAUCUUCGCUGGCGCCGGCUGGGCAACAUUCCGAGGGGACCGUCCCCUCGGUAAUGGCGAAUGGGACCCA, the self-cleavage is 0.0203.

Take GGCCGGCGUGGUCCCAGCCUCCUCGCUGGCGCCGGCUGGGCAACAUUCCGAGGGGACCGUCCCCUCGGUAAUGGCGAAUCGGACCCA: the self-cleavage amounted to 0.172.

Consider GGCCGGCAUGGUCCCAGCCUCCUCGCUGGCGCCGGCUGGGGAACAUUCCGAGGUGACCGUCCCCUCGGUAAUGGCGAAUGGGACCCA, for which the self-cleavage amounted to 0.739.

For the variant GGCCGGCAUGGUCCCAGCCUCCUCGCUGGUGCCGGCUGGGCAACAUUCCGAGGGGACUGUCCCCUCGGUAAUGGCGAAUGGGACCCA, the self-cleavage is 0.743.

For GGCCGGCAUGGUCCCAGCCUCCUCGCUGACGCGGGCUGGGCAACAUUCCGAGGGGACCGUCCCCUCGGUAAUGGCGAAUGGGACCCA, the self-cleavage came out at 0.0346.

Turning to GGCCGGCAUGGUCCCAGCCGCCUCGCUGGCCCCGGCUGGGCAACAUUCCGAGGGGACCGUCCCCUCGGUAAUGGCGAAUGGGACCCA, the self-cleavage stood at 0.

With GGCCGGCAUGGUCCCAAUCUCCUCGCUGGCGCCGGCUGGGCAACAUUCCGAGGGGACCGUCCCCUCGGUAAUGGCGAAUGGGACCCA, the self-cleavage was found to be 0.106.

With GGGCGGCAUGGUCCCAGCCUCCUCGCUGGCGCCGGCUGGGCAACAUUCCGAGUGGACCGUCCCCUCGGUAAUGGCGAAUGGGACCCA, the self-cleavage was found to be 0.549.

For the variant GGCCGGCAUGGUCCCAGCCUCCUCGCUGGCGCAGGCGGGGCAACAUUCCGAGGGGACCGUCCCCUCGGUAAUGGCGAAUGGGACCCA, the self-cleavage was 0.119.

Turning to GGCCUGCAUGGUCCCAGCCUCCUCGCUGGCGCCGGCUGGGCAACAUUCCGAGGGGACCGUCCCCUCGGUAAUGGCGUAUGGGACCCA, the self-cleavage is 0.158.

Consider GGCCGGCAUGGUCCCAGCCUCCUCGCUGGUGCCGGUUGGGCAACAUUCCGAGGGGACCGUCCCCUCGGUAAUGGCGAAUGGGACCCA, for which the self-cleavage was found to be 0.244.

Take GGCCGGCAUGGUCCCAGCCUCCUCGAUGGCGCCGGCUGGGCAACAUUCCGAGGGGACCGUCCCCUCGGUAAUGGCGAAUAGGACCCA: the self-cleavage amounted to 0.544.

As for GGCCGGCAUGGUCCCAGCCUCCUCGCUGGCGCCGGCUGGGGAACAUUCCGAGGGGACCGUCCCCCCGGUAAUGGCGAAUGGGACCCA, the self-cleavage came to 0.745.

GGCCGGCAUGUUCCCAGCCUCCUCGCUGGCACCGGCUGGGCAACAUUCCGAGGGGACCGUCCCCUCGGUAAUGGCGAAUGGGACCCA: the self-cleavage was determined as 0.179.
